This is an account of results in patent US20030186441A1 (MORPHOTEK, published 2003).

In the assay the target is T1, full length hMLH1 protein (human, UniProt P40692 2-756).
T1 construct: also called MLH1 (human)
T1 sequence: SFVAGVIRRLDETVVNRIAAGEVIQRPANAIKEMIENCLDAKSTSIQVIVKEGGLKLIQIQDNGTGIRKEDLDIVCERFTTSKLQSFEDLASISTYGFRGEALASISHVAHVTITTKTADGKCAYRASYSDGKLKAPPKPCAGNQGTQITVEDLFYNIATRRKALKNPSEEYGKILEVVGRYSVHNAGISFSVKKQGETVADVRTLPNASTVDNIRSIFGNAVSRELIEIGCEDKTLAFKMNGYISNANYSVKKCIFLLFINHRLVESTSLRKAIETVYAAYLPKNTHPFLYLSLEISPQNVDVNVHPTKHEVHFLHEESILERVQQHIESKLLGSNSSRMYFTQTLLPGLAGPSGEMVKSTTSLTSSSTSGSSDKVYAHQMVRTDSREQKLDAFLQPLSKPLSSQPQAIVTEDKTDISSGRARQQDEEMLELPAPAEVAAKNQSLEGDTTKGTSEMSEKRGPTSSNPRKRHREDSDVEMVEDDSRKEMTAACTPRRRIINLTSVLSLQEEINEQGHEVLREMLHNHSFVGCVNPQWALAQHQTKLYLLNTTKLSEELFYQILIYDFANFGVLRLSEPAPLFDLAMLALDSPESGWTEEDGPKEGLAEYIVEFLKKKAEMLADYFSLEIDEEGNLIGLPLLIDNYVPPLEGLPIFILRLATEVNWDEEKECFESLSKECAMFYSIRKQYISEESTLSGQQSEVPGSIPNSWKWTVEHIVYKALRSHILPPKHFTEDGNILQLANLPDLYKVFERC
The assay can be described thus: co-immunoprecipitation of in vitro translated proteins with anti-hMLH1 mAb; converse experiment with N terminal hPMS2 antibody. The text has this:
[…]. […] Lane 6 contains a nonprogrammed reticulocyte lysate. In both panels A and B, autoradiographs of immunoprecipitated products are shown. When a 35S labelled, full-length hMLH1 protein (FIG. 3A, lane 5) was mixed with the unlabelled carboxyl terminal hPMS2 polypeptide, a monoclonal antibody (mAb) to the carboxyl terminus of hPMS2 efficiently immunoprecipitated the labeled hMLH1 protein (lane 1). No hMLH1 protein was precipitated in the absence of hPMS2 (lane 2). Conversely, when the 35S labelled carboxyl terminus of hPMS2 (lane 3) was incubated with unlabelled, full length hMLH1 protein, an anti hMLH1 mAb precipitated the hPMS2 polypeptide (lane 4). In the absence of the unlabelled hMLH1 protein, no hPMS2 protein was precipitated by this mAb (lane 6).
Immunoprecipitation. Immunoprecipitations were performed on in vitro translated proteins by mixing the translation reactions with 1 μg of the MLH1 specific monoclonal antibody (mAB) MLH14 (Oncogene Science, Inc.), a polyclonal antibody generated to codons 2-20 of hPMS2 described above, or a polyclonal antibody generated to codons 843-862 of hPMS2 (Santa Cruz Biotechnology, Inc.) in […] of EBC buffer (50 mM Tris, pH 7.5, 0.1 M NaCl, 0.5% NP40). […]

B1: hPMS2-134 (containing codons 1-134 of hPMS2) (other)
chain: MERAESSSTEPAKAIKPIDRKSVHQICSGQVVLSLSTAVKELVENSLDAGATNIDLKLKDYGVDLIEVSDNGCGVEEENFEGLTLKHHTSKIQEFADLTQVETFGFRGEALSSLCALSDVTISTCHASAKVGTR
For B1, the binding result is given as “no binding”.
